# IntAct's records for PubMed 11113154
# Legend:
# [1] = molecular target: bem1_yeast BEM1 (UniProt P29366)
# [2] = molecular target: bem1_yeast BEM1 (UniProt P29366); remark: listed apart in the source
# Sequence of bem1_yeast BEM1 (P29366 whole entry): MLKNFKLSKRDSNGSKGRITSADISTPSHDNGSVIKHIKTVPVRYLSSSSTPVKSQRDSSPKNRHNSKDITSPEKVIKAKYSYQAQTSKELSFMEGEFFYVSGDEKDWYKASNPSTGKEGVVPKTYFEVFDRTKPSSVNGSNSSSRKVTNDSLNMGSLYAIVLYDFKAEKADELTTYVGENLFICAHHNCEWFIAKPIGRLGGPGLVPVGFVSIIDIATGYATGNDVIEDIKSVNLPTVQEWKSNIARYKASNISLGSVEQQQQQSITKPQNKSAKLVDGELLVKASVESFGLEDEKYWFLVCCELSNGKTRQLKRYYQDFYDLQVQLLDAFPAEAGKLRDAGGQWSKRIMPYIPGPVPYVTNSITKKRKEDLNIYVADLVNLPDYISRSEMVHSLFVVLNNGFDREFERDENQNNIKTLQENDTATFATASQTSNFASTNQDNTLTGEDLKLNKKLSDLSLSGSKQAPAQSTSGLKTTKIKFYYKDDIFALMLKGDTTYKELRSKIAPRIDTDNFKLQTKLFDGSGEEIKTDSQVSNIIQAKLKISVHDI
# Sequence of Cell division control protein 42 (Saccharomyces cerevisiae), P19073 D57Y (P19073 whole entry D57Y): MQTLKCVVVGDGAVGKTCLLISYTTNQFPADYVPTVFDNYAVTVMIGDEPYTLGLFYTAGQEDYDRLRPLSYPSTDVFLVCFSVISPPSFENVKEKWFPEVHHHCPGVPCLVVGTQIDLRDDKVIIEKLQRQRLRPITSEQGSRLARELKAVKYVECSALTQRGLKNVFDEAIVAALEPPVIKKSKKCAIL
# Sequence of Cell division control protein 42 (Saccharomyces cerevisiae), P19073 Q61L (P19073 whole entry Q61L): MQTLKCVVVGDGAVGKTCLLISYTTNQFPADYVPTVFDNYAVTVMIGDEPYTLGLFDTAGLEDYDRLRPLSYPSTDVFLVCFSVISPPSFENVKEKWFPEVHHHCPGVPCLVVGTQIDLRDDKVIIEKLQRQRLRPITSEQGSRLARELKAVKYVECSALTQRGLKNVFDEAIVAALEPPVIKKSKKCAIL
effect of a mutation on the interaction [1],effect of a mutation on the interaction [2],Substance
disrupting interaction strength,–,"Cell division control protein 42 (Saccharomyces cerevisiae), P19073 D57Y"
–,with no effect,"Cell division control protein 42 (Saccharomyces cerevisiae), P19073 Q61L"
